Test results reported in paper PMC4049228 (Science (New York, N.Y.), 2014).

Target: T1, Ricinus communis ATXR5 (RcATXR5 a.a. 158–374; nSET and SET domain) (Ricinus communis, UniProt B9RU15 158-374)
T1 sequence: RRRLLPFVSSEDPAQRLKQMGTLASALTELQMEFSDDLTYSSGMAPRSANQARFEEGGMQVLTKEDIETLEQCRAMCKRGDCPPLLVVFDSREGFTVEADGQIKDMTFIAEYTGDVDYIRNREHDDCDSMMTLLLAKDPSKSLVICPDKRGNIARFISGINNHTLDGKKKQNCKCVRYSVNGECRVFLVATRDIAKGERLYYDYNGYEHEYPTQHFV
Experiment: crystal structure

B1: histone H3.1 peptide (a.a. 18–36) (peptide)
peptide: KQLATKAARKSAPATGGVK
B1: binds.
